The source of these data is paper PMC3320604, “A Genome-Wide Screen for Genetic Variants That Modify the Recruitment of REST to Its Target Genes”.

For data set [1], the target named is T1, HisMBP-REST/DBD (UniProt Q13127 159-412).
T1 sequence: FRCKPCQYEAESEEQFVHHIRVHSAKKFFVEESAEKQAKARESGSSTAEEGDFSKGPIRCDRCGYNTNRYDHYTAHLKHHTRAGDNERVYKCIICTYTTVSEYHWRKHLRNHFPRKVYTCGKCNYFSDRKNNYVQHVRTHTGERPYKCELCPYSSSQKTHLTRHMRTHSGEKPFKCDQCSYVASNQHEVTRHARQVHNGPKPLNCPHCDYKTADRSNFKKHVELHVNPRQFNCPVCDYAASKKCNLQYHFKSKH
The data set is described as follows: competition EMSA; 10 mM Tris-HCl pH 8.0, 100 mM KCl, 50 uM ZnCl2 (printed '50 M ZnCl', symbols lost), 2 mM 2-mercaptoethanol, 10% glycerol, 0.1% NP-40, 0.1 mg/ml BSA; 0.5 nM probe, 150 nM competitor, 40 nM protein, 1 h; temperature lost in text. The note with it: protein: recombinant; tags: His-MBP. Background: In EMSA bound probe runs differently from free probe, usually more slowly.

The target in data set [2] is T1, HisMBP-REST/DBD. The data set is described as follows: competition; 10 mM Tris-HCl pH 8.0, 100 mM KCl, 50 uM ZnCl2 (printed '50 M ZnCl', symbols lost), 2 mM 2-mercaptoethanol, 10% glycerol, 0.1% NP-40, 0.1 mg/ml BSA; 0.5 nM probe, 150 nM competitor, 40 nM protein, 1 h; temperature lost in text. Conditions: protein: recombinant; tags: His-MBP.

B1: Ideal RE1 (Chrm4) (dsDNA)
DNA 1: TCAGCCTCTCTTCAGCACCTCGGACAGCTCCGGACCTCTC
DNA 2: GAGAGGTCCGGAGCTGTCCGAGGTGCTGAAGAGAGGCTGA
For B1, the binding result in data set [1] is reported as “binds”.

B2: Mutated RE1 (Mut) (dsDNA)
DNA 1: TCAGCCTCTCTTCAGCAGGTCCCACAGCTCCGGACCTCTC
DNA 2: GAGAGGTCCGGAGCTGTGGGACCTGCTGAAGAGAGGCTGA
Consider B2, for which the binding result in data set [2] is given as “no binding”.
